From patent publication US7220822 (OHIO STATE UNIVERSITY, dated 2007)

Molecular target: T1, CD80-Ig (extracellular domain of CD80 fused with the constant region of mouse IgG1 heavy chain) (mouse)
T1 construct: extracellular domain; also called B7-1
Assay: SPR (BIACORE), direct binding to immobilized CD80-Ig, linear regression plot
Protocol: Binding experiments were performed by surface plasmon resonance (SPR) on an instrument sold under the trademark BIACORE™ from Pharmacia Biosensor (Uppasala, Sweden). All experiments were performed at 37° C. using HBS-EP buffer (25 mM Hepes, pH7.4, […], 3.4 mM EDTA and, 005% surfactant P20) supplied by Pharmacia Biosensor.
CD80-Ig (extracellular domain of CD80 fused with the constant region of mouse IgG1 heavy chain) at 35 µg/ml in 10 mM sodium acetate buffer, pH 4.2, was coupled to a research grade CM 5 sensor chip using a standard amine coupling procedure with the following modifications (38). To reduce the immobilization level of the ligand, the surface was activated for 3 (instead of 7) minutes with N-hydroxysuccinamide and […]. […] Following coupling, noncovalently bound ligand was removed by washing twice with 5 mM NaOH.
Data for both k_a and k_d are quite consistent over the entire range of concentrations used. The difference between experimental and calculated data for both EL CD28 and RI CD28 peptide mimetics estimated by Chi^2 value is low being close to the noise level of the instrument. A linear regression plot of the rate of change in the response against response units was plotted using these values of k_a and k_d for each CD28 peptide analyte.

H-KIEFMYPPPYLDNERSNGTI-OH (also called Free L peptide) [L-CD28 (free L CD28 peptide mimetic)] was tested, and the Kd was 2440 nM.
